Measurements from patent US12606635B2, “Glypican-2-binding moieties, chimeric antigen receptors and uses thereof” (Nanjing Legend Biotech Co., Ltd., priority 2020, dated 2026).

T1: human GPC2 expressing cells HEK293T/hGPC2 (Homo sapiens, UniProt Q8N158)
T1 construct: expressed in transfected cells; host or cells: HEK293T (ATCC, #CRL-1573), plvx-EF1α-puro plasmid
T1 sequence (Q8N158 24-554): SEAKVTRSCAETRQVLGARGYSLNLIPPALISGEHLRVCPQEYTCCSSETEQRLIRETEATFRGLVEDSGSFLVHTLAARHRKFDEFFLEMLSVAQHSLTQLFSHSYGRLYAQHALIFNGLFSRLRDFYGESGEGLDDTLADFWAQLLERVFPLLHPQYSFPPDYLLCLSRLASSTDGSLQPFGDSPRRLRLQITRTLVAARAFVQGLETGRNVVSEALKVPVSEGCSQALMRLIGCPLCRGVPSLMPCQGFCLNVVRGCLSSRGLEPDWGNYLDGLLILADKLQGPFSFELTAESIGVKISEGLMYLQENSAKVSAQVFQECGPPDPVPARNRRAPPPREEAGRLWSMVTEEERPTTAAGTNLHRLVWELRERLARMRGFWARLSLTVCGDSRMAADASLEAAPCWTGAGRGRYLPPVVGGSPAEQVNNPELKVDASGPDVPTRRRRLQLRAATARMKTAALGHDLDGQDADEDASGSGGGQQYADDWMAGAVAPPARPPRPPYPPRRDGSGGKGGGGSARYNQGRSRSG

T2: human GPC2 expressing cells SH-SY5Y (Homo sapiens, UniProt Q8N158)
T2 construct: host or cells: SH-SY5Y
T2 sequence (Q8N158 24-554): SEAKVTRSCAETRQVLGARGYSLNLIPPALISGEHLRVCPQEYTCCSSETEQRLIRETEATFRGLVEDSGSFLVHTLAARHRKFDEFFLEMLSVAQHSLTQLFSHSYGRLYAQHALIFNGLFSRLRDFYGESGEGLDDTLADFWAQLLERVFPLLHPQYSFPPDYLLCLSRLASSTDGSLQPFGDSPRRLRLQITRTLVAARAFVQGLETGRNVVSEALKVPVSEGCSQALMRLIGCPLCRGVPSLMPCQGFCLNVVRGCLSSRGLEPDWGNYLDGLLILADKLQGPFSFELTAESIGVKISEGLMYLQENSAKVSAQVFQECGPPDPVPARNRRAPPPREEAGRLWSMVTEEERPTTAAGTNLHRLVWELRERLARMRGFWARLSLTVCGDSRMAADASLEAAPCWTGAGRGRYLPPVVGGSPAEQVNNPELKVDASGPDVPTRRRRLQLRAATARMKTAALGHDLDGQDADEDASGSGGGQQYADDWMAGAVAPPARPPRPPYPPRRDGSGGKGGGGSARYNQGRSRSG

T3: recombinant human GPC2 protein (Homo sapiens, UniProt Q8N158)
T3 construct: His; purchased RD System (R&D Systems) 2304-GP
T3 sequence (Q8N158 24-554): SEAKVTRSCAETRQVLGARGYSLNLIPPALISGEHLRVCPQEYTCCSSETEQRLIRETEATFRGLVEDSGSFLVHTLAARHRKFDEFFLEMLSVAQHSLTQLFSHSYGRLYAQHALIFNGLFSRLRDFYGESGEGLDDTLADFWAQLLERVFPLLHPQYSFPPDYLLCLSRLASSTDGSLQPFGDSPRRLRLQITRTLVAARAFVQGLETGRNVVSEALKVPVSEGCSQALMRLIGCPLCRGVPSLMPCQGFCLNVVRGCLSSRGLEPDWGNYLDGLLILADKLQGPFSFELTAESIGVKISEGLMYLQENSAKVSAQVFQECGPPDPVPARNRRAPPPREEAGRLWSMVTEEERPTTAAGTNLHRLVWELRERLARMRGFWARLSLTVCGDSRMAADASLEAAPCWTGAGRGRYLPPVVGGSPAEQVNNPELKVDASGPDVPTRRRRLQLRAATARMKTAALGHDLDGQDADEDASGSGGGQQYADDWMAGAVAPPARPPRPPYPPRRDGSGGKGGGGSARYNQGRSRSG

T4: recombinant human GPC2-His protein (Homo sapiens, UniProt Q8N158)
T4 construct: His
T4 sequence (Q8N158 24-554): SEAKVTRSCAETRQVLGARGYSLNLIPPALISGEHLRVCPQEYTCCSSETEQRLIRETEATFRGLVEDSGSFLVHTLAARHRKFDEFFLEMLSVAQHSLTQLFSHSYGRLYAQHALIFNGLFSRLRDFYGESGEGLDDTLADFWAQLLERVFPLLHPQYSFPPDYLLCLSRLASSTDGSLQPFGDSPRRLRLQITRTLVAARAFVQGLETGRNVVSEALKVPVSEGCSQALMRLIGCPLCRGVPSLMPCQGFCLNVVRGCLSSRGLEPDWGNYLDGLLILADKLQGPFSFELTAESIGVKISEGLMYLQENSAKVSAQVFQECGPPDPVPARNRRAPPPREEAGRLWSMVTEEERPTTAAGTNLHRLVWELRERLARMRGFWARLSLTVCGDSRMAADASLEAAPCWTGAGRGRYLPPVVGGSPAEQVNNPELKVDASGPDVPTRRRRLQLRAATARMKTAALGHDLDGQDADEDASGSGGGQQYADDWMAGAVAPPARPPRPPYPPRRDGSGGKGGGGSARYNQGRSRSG


Experiments:
[1] = biological target: T1, human GPC2 expressing cells HEK293T/hGPC2; assay: Flow cytometry binding of VHH-His proteins to HEK293T/hGPC2; settings: FIG. 4A-4C
Description: (§1) Recombinant anti-GPC2 VHH-His proteins were constructed by fusing the anti-GPC2 VHH sequence to a mouse Ig heavy chain signal peptide sequence (N′-MGWSWILLFLLSVTAGVHS-C; SEQ ID NO: 179) at the N terminus, and a 6×His-tag (N′-HHHHHH-C; SEQ ID NO: 180) at the C terminus. The codons were further optimized for optimal expression in mammalian engineered immune effector cells. The obtained nucleotide sequences were then cloned into a mammalian expression vector pCDNA3.4 to provide expression plasmids.
(§2) Binding affinities of humanized VHH proteins AS70950VH6, AS71529VH6, AS72669VH6 and AS71529VH6-AS70950VH6 anti-GPC2 VHH-HIS proteins to human GPC2 expressing cells (SH-SY5Y and HEK293T/hGPC2) and cynomolgus monkey GPC2 expressing cell (HEK293T/cynoGPC2) were determined using flow cytometry. Briefly, serially diluted anti-GPC2 VHH-HIS proteins were incubated with 2×10^5 target cells at 4° C. for 30 mins. After washing, cells were further labelled with THE™ His tag Antibody (iFluor 647) (Genescript, #A01802) at 4° C. for 30 mins. Fluorescence intensity was measured by flow cytometry. A four parameters variable slope curve was fitted to each group using GraphPad Prism for Windows Version 6.02.

[2] = biological target: T2, human GPC2 expressing cells SH-SY5Y; assay: Flow cytometry binding of VHH-His proteins to SH-SY5Y; settings: FIG. 4A-4C
Description: as §1, §2

[3] = tested on: cynomolgus monkey GPC2 expressing cell HEK293T/cynoGPC2; assay: Flow cytometry binding of VHH-His proteins to HEK293T/cynoGPC2; settings: FIG. 4A-4C
Description: as §1, §2

[4] = tested on: other recombinant human and murine GPC family proteins (human GPC1, GPC3, GPC4, GPC5, GPC6, mouse GPC2); assay: ELISA-based specific binding assay, cross-reactivity; settings: FIG. 3A-3G
Experimental: (§3) To evaluate the specificity of humanized anti-GPC2 VHH5 to recombinant human GPC2 protein, an ELISA-based binding assay was conducted to determine the differential target proteins binding of anti-GPC2 VHH5. Briefly, microplates were coated with 2 μg/mL recombinant human GPC1-His (RD System, Cat #4519-GP), GPC2-His (RD System, Cat #2304-GP), GPC3-His (ACRO, Cat #GP3-H5223), GPC4-Fc (RD System, Cat #9195-GP), GPC5-His (RD System, Cat #2607-G5/CF), GPC6-His (RD System, Cat #2845-GP) or recombinant mouse GPC2-His (RD System, Cat #2355-GP) proteins. Recombinant human protein coated plates were blocked with skim milk. Serially diluted humanized VHH-hIgG1Fc recombinant antibodies were added to each well of the plates and incubated at 4° C. for 1.5 h. Samples were further labelled with HRP-conjugated goat anti human IgG (H+L) secondary antibody (Genescript, Cat #A00166-1) and signal was developed with 3,3′,5,5′-Tetramethylbenzidine (TMB) substrate according to manufacturer's instruction. For the GPC4, VHH-His recombinant antibodies and anti-His tag secondary antibody (Genescript, Cat #A00612) were added to the GPC4-Fc coated plates instead. Optic density at 450 nm was measured by plate reader.

[5] = biological target: T3, recombinant human GPC2 protein; assay: ELISA-based specific binding assay, human GPC2; settings: FIG. 3A-3G
Experimental: as §3

[6] = biological target: T4, recombinant human GPC2-His protein; assay: SPR (Biacore T200) affinity of anti-GPC2 VHH-hIgG1Fc; settings: 1:1 binding model
Experimental: Each of the exemplary anti-GPC2 VHH sequences was cloned into a vector comprising a human IgG1Fc fragment (hlgG1Fc) sequence to facilitate recombinant expression of anti-GPC2 VHH-hlgG1Fc. Recombinant proteins were obtained and purified for SPR assays. The affinity of each anti-GPC2 VHH-hIgG1Fc for GPC2 was determined by SPR using a BIACORE® T200 analytical system (GE Healthcare). Briefly, recombinant human GPC2-His protein was covalently coupled to a CM5(s) sensor chip using an amine coupling kit. Exemplary VHH-hIgG1Fc proteins were serially diluted in running buffer (10 mM HEPES, 150 mM NaCl, 3 mM EDTA, 0.05% Tween-20, pH 7.4) and injected over the chip cell at a flowrate of 100 μL/min for 100 seconds followed by buffer-only injection for 300 seconds to allow for antibody dissociation. The dissociation […] (KD) were determined using the BIACORE® T200 evaluation software version 3.0 (Langmuir binding, local fit, 1:1 binding model).

binding to HEK293T/hGPC2 [1]	binding to SH-SY5Y [2]	cross-reactivity with other recombinant human and murine GPC family proteins [4]	binding to recombinant human GPC2 protein [5]	ka [6] [M⁻¹ s⁻¹]	kd [6] [s⁻¹]	Molecule	binding to HEK293T/cynoGPC2 [3]
specifically bind	specifically bind	–	–	–	–	AS71529VH6-AS70950VH6: tandem humanized anti-GPC2 VHH, SEQ ID NO: 146; tested as VHH-HIS protein (protein, His tag; AS71529VH6-AS70950VH6, tested as VHH-HIS protein) VHH: EVQLVESGGGLVQPGGSLRLSCAVSEYRYSSRYCMGWFRQAPGKGREGVAAIDSNGSADYVDSVKGRFTISKDNSKNTLYLQMNSLRAEDTAMYYCAADHLAYDCYSGATSVFRYWGQGTLVTVSSGGGGSGGGGSGGGGSEVQLVESGGGLVQPGGSLRLSCAISEFTYKNTCVGWFRQAPGKGREGVAAIDSDGNTNYVDSVKGRFTISQDNSKNTVYLQMNSLRAEDTAMYYCAAGAYCGRLLLWIGNYAYWGQGTLVTVSS	specifically bind
specifically bind	specifically bind	–	–	–	–	AS70950VH6: humanized anti-GPC2 VHH, SEQ ID NO: 124; tested as VHH-HIS protein (protein, His tag; AS70950VH6, tested as VHH-HIS protein) VHH: EVQLVESGGGLVQPGGSLRLSCAISEFTYKNTCVGWFRQAPGKGREGVAAIDSDGNTNYVDSVKGRFTISQDNSKNTVYLQMNSLRAEDTAMYYCAAGAYCGRLLLWIGNYAYWGQGTLVTVSS	specifically bind
specifically bind	specifically bind	–	–	–	–	AS72669VH6: humanized anti-GPC2 VHH, SEQ ID NO: 130; tested as VHH-HIS protein (protein, His tag; AS72669VH6, tested as VHH-HIS protein) VHH: QVQLVESGGGVVQPGGSLRLSCAASRFTYSSYCMGWIRQAPGKGREGVAIFYTGGGRTYYADSVKGRFTISQDNSKNTLYLQMNSLRAEDTAVYYCVAGFYCSGGYWEGDFGYWGQGTLVTVSS	specifically bind
–	–	no cross-reactivity	high affinity	200000	0.00017	AS78117VH4-hIgG1Fc: AS78117VH4 VHH fused to human IgG1Fc fragment (protein, left off: a dimerising Fc or GST, AS78117VH4 VHH fused to human IgG1Fc fragment) EVQLVESGGGLVQPGGSLRLSCIVSRYTYATYSMAWFRQAPGKGLEGVSGLDSVGATGYAESVKGRFTISRDNSKNTLYLQMNSLRAEDTAVYYCVVDPASAKVTYGSWSTPSYAYWGQGTLVTVSS	–
–	–	–	high affinity	850000	0.0044	AS71529VH6-hIgG1Fc: AS71529VH6 VHH fused to human IgG1Fc fragment (protein, left off: a dimerising Fc or GST, AS71529VH6 VHH fused to human IgG1Fc fragment) EVQLVESGGGLVQPGGSLRLSCAVSEYRYSSRYCMGWFRQAPGKGREGVAAIDSNGSADYVDSVKGRFTISKDNSKNTLYLQMNSLRAEDTAMYYCAADHLAYDCYSGATSVFRYWGQGTLVTVSS	–
specifically bind	specifically bind	–	–	–	–	AS71529VH6: humanized anti-GPC2 VHH, SEQ ID NO: 127; tested as VHH-HIS protein (protein, His tag; AS71529VH6, tested as VHH-HIS protein) VHH: EVQLVESGGGLVQPGGSLRLSCAVSEYRYSSRYCMGWFRQAPGKGREGVAAIDSNGSADYVDSVKGRFTISKDNSKNTLYLQMNSLRAEDTAMYYCAADHLAYDCYSGATSVFRYWGQGTLVTVSS	specifically bind
